One block for each compound: values may come before it. Ends that are not written are not given here.
How the values were obtained:
[1] = Cysteine challenge of TcO complexes; type: physicochemical; details: pH 7.4, 20 h, 310 K
Method: A solution containing 16 μg of lyophilized TcO[UBI 29-41] (SEQ ID NO: 1) was added to 32 μl of Cysteine solution in PBS pH 7.4. Three concentrations of Cysteine solution were used: 100 mM, 15 mM and 1 mM corresponding respectively to a molar ratio Cysteine:Tc-UBI-WT of 333, 53 and 3. The samples were incubated for 20 h at 310 K prior to HPLC and ESI-MS analysis. Similar experiment was performed for TcO[TGRRR] (SEQ ID: NO 22) complex. 13 μg of lyophilized TGRRR(SEQ ID: NO 22)-TcO complex were added to 64 μl of 15 mM Cysteine solution in PBS pH 7.4 corresponding to a TcO[TGRRR] (SEQ ID: NO 22):Cysteine molar ratio of 50. This solution was incubated for 20 h at room temperature prior to HPLC analysis.
To be useful for the in vivo application of the TGRRR sequence (SEQ ID NO: 26) to label peptides or proteins, the TcO[TGRRR] (SEQ ID NO: 27) complex must be stable during 1-3 times the period of ^99mTc. The inventors evaluated the stability of the [TcO]^3+ complexes in the case of the peptide UBI-WT (SEQ ID: NO 1) and TGRRR, (peptide P13; SEQ ID NO: 26). To this end, the inventors performed a Cysteine challenge. 16 μg of the TcO[UBI-WT] was added to 1, 15, and 100 mM solutions of Cysteine at pH 7.4 corresponding respectively to molar ratio of 3, 53 and 333. These samples were incubated for 20 h at 310 K. The mixtures were analyzed by HPLC and LC-MS.

CHO-SST-2 (mb) = molecular target: T1, CHO-SST-2 (mb) (Homo sapiens, UniProt P30874); test: Binding to somatostatin receptor, CHO-SST-2 membranes
T1 construct: expressed in transfected cells; host or cells: CHO cell membranes (mb)
Method: After subtraction of the non-specific binding and normalization, data obtained with [^125I][Tyr^1]-somatostatin were analyzed using the Hill equation to estimate the IC50 values.

[2] = system: AR4-2J xenografted tumour; test: Whole body section imaging with β-imager; type: in vivo, mice
Method: Full Body section analysis: the mice were injected by caudal vein and sacrificed 4 hours later. For imaging, the mice were anesthesied and then immersed in an −80° C. mixture of dry ice and isopentane to prevent CNT tissue redistribution. After blocking the body in mounting medium, tissue sections (20 μm) were made at −20° C. with a slicing microtome (LEICA Microsystems, France). Sections were kept at room temperature for 2 hours in the presence of silica gel to ensure complete drying.
The quantitative determination of the radioactivity in dried tissue sections and imaging were carried out using a β-imager (Biospace Lab, Paris, France).

[3] = 30 equivalents of Cysteine; cited from earlier work
[4] = system: AR4-2J xenografted tumour; details: mouse, in vivo
Method: Females Balb/c nude mice weighing 20 g were purchased from Charles River Laboratories (L'Arbresle, France). The mice were kept in a conventional animal facility and had access ad libitum to food and drink. The experimental protocol has been approved by the local ethical committee for animal experimentation.
Mice were implanted subcutaneously with 5-6 millions AR4-2J cells freshly suspended in sterile PBS. […] After 1 h, 4 h or 24 h time period, the mice were sacrificed by ex-sanguination under anaesthesia. Organs of interest, blood and urine were collected and weighted. The radioactivity was measured with a gamma counter.
Two control experiments were also conducted.

T1 sequence (P30874 whole entry): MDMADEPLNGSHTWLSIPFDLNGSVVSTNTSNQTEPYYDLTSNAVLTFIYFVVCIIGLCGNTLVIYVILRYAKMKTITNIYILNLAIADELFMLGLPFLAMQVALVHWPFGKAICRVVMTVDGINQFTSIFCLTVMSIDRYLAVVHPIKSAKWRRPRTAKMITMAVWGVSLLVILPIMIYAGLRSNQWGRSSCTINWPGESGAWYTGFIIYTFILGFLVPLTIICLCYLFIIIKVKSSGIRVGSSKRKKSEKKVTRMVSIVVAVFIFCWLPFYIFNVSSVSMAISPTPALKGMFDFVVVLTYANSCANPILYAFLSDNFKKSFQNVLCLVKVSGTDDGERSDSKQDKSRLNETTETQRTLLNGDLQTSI

Compound: TGRAKRRMQYNRR (Ac-TGRAKRRMQYNRR-NH2) [SEQ ID NO: 1, N-acetylated, C-amidated tridecamer, residue 29 to 41 of the protein Ubiquicidine]
initial [TcO]3+ complex observed ([1]; 1 mM Cysteine): more than 95%
initial [TcO]3+ complex observed ([1]; 15 mM Cysteine): 69%
initial [TcO]3+ complex observed ([1]; 100 mM Cysteine): 10%

Ki (CHO-SST-2 (mb)): 0.02 nM
Compound: CC(C)[C@@H]1NC(=O)[C@H](CCCCN)NC(=O)[C@@H](Cc2c[nH]c3ccccc23)NC(=O)[C@H](Cc2ccc(O)cc2)NC(=O)[C@@H](NC(=O)[C@@H](Cc2ccccc2)NC(=O)CNC(=O)CNC(=O)[C@H](CCCNC(=N)N)NC(=O)[C@H](CCCNC(=N)N)NC(=O)[C@H](CCCNC(=N)N)NC(=O)CNC(=O)[C@@H](N)[C@@H](C)O)CSSC[C@@H](C(=O)N[C@H](C(N)=O)[C@@H](C)O)NC1=O

Compound: TcO[HTGRRRGG-RC-121]: TcO complex of HTGRRRGG-RC-121
radioactivity uptake in the tumour region, β-imaging of whole body section ([2]; group 1, 4 hours post injection): important uptake of the labelled compound in this region
radioactivity uptake in the tumour region, β-imaging of whole body section ([2]; group 2, 125-fold excess of RC-121, 4 hours post injection): absence of radioactivity uptake

Compound: [AGGG]TcO complex: TcO complex of the peptide AGGG (SEQ ID NO: 31), from the literature (also: TcO complex)
stability against Cysteine [3]: completely unstable

Compound: TcO[HTGRRR]: [TcO]3+ complex of the TGRRR peptide (P13) (TGRRR-OH; also: TcO complex)
initial [TcO]3+ complex observed ([1]; 15 mM Cysteine): 57%
Tumor/Blood Ratio [4]: 1
Tumor/Muscle Ratio [4]: 2.6
radioactivity in Adrenals [4]: 2.2 ± 4.7 % ID/g
radioactivity in Bile [4]: 6.6 ± 2.4 % ID/g
radioactivity in Blood [4]: 0.3 ± 0.3 % ID/g
radioactivity in Brain [4]: 0.1 ± 0.2 % ID/g
radioactivity in Carcass [4]: 0.2 ± 0.1 % ID/g
radioactivity in Heart [4]: 0.7 ± 0.6 % ID/g
radioactivity in Intestines [4]: 1.3 ± 0.8 % ID/g
radioactivity in Kidneys [4]: 21.9 ± 9.5 % ID/g
radioactivity in Liver [4]: 2.1 ± 0.5 % ID/g
radioactivity in Lungs [4]: 0.6 ± 0.8 % ID/g
radioactivity in Muscle [4]: 0.8 ± 1.23 % ID/g
radioactivity in Pancreas [4]: 0.3 ± 0.6 % ID/g
radioactivity in Spleen [4]: 0.7 ± 0.6 % ID/g
radioactivity in Stomach [4]: 2.6 ± 2.2 % ID/g
radioactivity in Tail [4]: 5.3 ± 4.5 % ID/g
radioactivity in Urine [4]: 8.6 ± 5.5 % ID/g

Reference: patent publication US9234001B2, “Cysteine-free efficient Technetium (Tc) or Rhenium (Re) chelating peptide tags and their use” (Commissariat a L'Energie Atomique et aux Energies …, priority 2008, dated 2016)
